Literature values as cited in paper PMC7221782.
Values joined by “and” are separate entries in the source; they are usually repeats but may differ in a detail not shown here. Identical values can stand only once.

Molecular target: Gal4 (Saccharomyces cerevisiae) (UniProt P04386)

In the case of Gal4 (from UniProt P04386), the Kd is listed as 8.5 µM and 20 µM.
